Assay [1] has as its target Mpox A28 (OPG153), residues 2-361, recombinant antigen (Monkeypox virus; template GenBank …, UniProt A0A7H0DNC4). Kind of assay: ELISA.
Assay [2] deals with VACV A26 (OPG153), residues 2-361, recombinant antigen (Vaccinia virus strain IHDW (GenBank …, UniProt P24758, strain)). Kind of assay: ELISA.

B1: 10M2146, human anti-A28 monoclonal antibody, IgG1 (antibody, V domains shown)
VH: EVQLVQSGAEVKKPGESLKISCKGSGYSFTTHWIGWVRQMPGEGLEWLGIIYPGDSETKYSPSFQGQVTISVDKSINTAYLHWSSLKASDTAMYFCARRPKNYYDASGYYNWLDPWGQGTLVTVSS
VL: EIQMTQSPSTLSASVGDRVTITCRASQSLSTWLAWYQQKPGKAPKLLIYKASILESGVPSRFSASGSGTEFTLTISGLQPDDFATYYCQQYNSYLGAFGQGTKVEIK
For the molecule B1, the binding result in assay [1] and in assay [2] was “binds” in each case.

The values above are taken from article doi:10.1101/2025.05.22.655505 (bioRxiv, 2025).
